Source: patent US9878007B2, “Syndecan peptides and polypeptides as inhibitors of vascular endothelial growth factor receptor-2 (VEGFR2) and very late antigen-4 (VLA-4)” (Wisconsin Alumni Research Foundation, priority 2015, dated 2018)

Columns and labels:
VEGFR2 and VLA-4 [1] = target: T1, VEGFR2 and VLA-4 (Homo sapiens, UniProt P05556+P13612+P35968); experiment: Activation / inhibition of Sdc1-mediated coupling of VEGFR2 to VLA-4 (FIGS. 6A-H); format: cell-based
T1 construct: the α4-integrin (VLA-4), which is expressed on myeloma cells; endogenous in cells; host or cells: CAG human myeloma cells (HPSE^low / HPSE^high) plated on fibronectin
T1 sequence (P35968 20-1356): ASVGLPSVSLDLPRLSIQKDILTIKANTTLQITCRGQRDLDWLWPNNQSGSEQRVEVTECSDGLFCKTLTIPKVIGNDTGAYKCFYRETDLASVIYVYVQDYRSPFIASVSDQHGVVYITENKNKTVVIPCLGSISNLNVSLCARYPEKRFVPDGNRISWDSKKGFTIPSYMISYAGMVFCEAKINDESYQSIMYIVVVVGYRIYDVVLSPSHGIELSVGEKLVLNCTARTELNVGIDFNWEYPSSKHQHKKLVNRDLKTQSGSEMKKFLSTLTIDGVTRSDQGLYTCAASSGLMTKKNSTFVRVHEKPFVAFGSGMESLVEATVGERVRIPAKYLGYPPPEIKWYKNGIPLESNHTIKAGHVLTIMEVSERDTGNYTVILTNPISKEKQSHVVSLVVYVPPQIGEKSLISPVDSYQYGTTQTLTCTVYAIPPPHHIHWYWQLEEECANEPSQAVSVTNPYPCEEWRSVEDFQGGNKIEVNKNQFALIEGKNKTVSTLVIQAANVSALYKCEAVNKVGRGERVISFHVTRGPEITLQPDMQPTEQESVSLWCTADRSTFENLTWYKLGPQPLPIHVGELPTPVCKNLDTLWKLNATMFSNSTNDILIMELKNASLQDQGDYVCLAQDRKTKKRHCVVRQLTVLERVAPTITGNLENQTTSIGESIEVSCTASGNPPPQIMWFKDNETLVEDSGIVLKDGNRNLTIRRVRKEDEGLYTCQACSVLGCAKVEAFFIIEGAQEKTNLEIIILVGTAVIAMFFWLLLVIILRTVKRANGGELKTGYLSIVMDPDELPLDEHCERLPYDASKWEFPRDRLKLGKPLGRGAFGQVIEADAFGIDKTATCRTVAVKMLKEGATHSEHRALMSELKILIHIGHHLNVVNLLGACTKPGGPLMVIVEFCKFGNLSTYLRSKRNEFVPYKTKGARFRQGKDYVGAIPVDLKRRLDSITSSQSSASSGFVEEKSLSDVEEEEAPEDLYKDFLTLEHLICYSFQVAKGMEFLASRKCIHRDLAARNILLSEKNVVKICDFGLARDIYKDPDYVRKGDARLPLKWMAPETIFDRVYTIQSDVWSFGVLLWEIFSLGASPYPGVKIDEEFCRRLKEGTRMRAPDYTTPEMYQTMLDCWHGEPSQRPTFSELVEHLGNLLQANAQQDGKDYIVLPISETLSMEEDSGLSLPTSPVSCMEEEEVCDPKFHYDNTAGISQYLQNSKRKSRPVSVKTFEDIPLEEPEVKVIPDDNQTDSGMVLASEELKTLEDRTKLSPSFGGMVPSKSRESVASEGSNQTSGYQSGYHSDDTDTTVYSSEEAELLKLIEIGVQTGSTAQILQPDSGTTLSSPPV
T1 sequence (P13612 34-1032): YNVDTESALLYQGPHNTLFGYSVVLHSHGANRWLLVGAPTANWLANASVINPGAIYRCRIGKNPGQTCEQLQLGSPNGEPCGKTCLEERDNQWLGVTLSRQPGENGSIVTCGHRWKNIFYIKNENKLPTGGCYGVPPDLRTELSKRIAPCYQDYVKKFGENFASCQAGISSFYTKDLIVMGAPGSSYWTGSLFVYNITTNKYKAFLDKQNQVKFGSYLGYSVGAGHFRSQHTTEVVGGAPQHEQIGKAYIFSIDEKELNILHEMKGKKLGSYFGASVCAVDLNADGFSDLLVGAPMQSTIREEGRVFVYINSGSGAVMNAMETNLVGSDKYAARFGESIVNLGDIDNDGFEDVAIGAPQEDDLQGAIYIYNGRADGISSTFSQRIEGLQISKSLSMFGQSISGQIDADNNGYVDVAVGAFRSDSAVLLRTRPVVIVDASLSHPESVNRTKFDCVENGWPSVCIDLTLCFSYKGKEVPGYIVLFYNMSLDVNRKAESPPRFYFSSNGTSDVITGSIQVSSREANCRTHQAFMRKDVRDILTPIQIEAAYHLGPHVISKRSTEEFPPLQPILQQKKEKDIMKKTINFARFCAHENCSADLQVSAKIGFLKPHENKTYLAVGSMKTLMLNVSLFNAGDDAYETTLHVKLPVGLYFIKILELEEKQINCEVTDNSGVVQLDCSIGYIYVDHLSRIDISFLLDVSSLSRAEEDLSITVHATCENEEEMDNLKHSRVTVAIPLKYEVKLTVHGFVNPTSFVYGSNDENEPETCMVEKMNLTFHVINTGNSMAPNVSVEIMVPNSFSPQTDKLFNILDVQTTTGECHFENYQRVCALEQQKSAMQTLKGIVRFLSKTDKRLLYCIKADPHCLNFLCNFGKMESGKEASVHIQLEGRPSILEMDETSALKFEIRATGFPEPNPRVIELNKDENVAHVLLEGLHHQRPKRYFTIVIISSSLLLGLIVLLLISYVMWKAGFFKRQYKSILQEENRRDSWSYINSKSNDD
T1 sequence (P05556 21-798): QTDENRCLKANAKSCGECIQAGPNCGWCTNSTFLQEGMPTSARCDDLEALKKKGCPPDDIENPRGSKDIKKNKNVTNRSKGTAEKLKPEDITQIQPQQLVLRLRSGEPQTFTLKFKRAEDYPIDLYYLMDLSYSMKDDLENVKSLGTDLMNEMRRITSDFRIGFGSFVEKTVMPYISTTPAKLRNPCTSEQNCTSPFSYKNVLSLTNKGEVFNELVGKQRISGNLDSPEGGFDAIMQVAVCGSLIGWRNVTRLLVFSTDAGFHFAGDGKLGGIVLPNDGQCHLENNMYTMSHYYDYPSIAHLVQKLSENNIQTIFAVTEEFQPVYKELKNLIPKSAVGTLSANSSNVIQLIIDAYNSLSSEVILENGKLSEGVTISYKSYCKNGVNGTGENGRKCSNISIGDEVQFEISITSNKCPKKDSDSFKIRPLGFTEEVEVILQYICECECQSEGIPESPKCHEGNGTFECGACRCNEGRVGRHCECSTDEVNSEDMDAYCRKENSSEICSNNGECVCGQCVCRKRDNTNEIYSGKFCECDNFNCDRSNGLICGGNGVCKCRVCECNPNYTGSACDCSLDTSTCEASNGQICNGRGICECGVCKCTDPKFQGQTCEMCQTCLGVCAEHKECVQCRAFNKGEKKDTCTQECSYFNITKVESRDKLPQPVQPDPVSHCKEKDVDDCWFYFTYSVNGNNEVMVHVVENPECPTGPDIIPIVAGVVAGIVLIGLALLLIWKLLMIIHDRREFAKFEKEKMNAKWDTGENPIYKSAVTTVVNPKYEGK
Method: (§1) FIGS. 6A-G. Peptides derived from the active site in Sdc1 activate or inhibit adhesion and invasion. (FIG. 6A) Transwell migration assays towards FN (for 16 hrs) were performed for HPSE low or high cells in the presence of 0, 0.3, 3, and 30 μM of S1ED^210-240. Cells migrating to the bottom side of the filter were counted from five random images for each treatment. (FIG. 6B) The sequence of S1ED210-240 is shown (SEQ ID NO: 3), as well as […] truncation mutants of the peptide (SEQ ID NOs: 5, 2, 4 and 7). Amino acids shown in red appear necessary for the spreading and invasive activity. (FIG. 6C) Images of HPSE^low and HPSE^high cells plated on FN for 2 hr. (FIG. 6D) HPSE^low cells were treated with 0, 0.3, 3, 10 and 30 μM of S1ED^210-236, S1ED^210-233, or S1ED^214-240, plated on FN for 2 hr, fixed and stained with fluorescent phalloidin. Cells from five random images were quantified for cell attachment and cell spreading. (FIG. 6E) HPSE^high cells were treated with 0, 3, 10, and 30 μM of S1ED^210-236, S1ED^210-233, and S1ED^214-240, plated on FN for 2 hr, then fixed, imaged and quantified as in FIG. 6D. (FIG. 6F) Transwell migration assays towards FN (for 16 hr) were performed for HPSE^low or HPSE^high cells in the presence of 30 μM of S1ED^210-236, S1ED^210-233, S1ED^214-240 and Vandetanib. (FIG. 6G) HPSE^low cell lysates were incubated overnight with glutathione beads coated with GST or GST-S1ED in the absence or presence of 30 μM of S1ED^210-236, S1ED^210-233, and S1ED^214-240. Capture of VLA-4 or VEGFR2 was detected by immunoblotting. Sequences in FIG. 6B are 210-240 (SEQ ID NO: 3), 210-236 (SEQ ID NO: 2), 210-233 (SEQ ID NO: 4), 214-240 (SEQ ID NO: 5) and 214-236 (SEQ ID NO: 7).
It is envisioned that a peptide that contains binding sites for both VEGFR2 and VLA-4, such as 210-236, has the capacity to bridge both receptors and link them together. This activates signaling that the cells use for migration and invasion. […]

CAG myeloma cells [2] = experiment: Cell spreading / attachment assay of CAG myeloma cells on FN or VCAM-1; format: cell-based, human
Method: Nitrocellulose-coated slides were coated for 2 hr at 37° C. with 40 μg/ml FN (kindly provided by Dr. Donna Peters, University of Wisconsin-Madison) or 5 μg/ml recombinant VCAM-1/Fc chimera (R&D Systems) in calcium and magnesium-free PBS (CMF-PBS; 135 mM NaCl, 2.7 mM KCl, 10.2 mM Na2HPO4-7H20 and 1.75 mM KH2PO4, pH7.4). Slides were blocked for 1 hr at 37° C. with RPMI 1640 containing 1% heat-denatured BSA (plating medium). Cells in plating medium were allowed to attach and spread for 2.5 hr at 37° C. Slides were fixed in 4% EM grade paraformaldehyde (Electron Microscopy Sciences) in CMF-PBS and labeled for 30 min in 0.13 μM rhodamine phalloidin (Invitrogen) in CMF-PBS. Coverslips were mounted in non-fluorescing mounting medium (Immumount; Thermo Shandon) and allowed to dry. All images were acquired with a Nikon Microphot FX microscope using a 20× objective (Nikon; Ex 541-551, DM 580, Barrier 590), Photometric CoolSnap ES camera, and version 7.7.3.0 Metamorph© Imaging software (Molecular Devices). All images represent results from triplicate wells and at least three independent experiments.

CAG myeloma cells [3] = experiment: Transwell migration assay of CAG myeloma cells towards FN; format: cell-based, human; settings: 16 hrs
Method: The bottom chambers of Transwell filter chambers (8 μm pores; Corning) were coated with 40 μg/ml of FN. Cells (5×10^5 in 0.2 ml plating medium) were placed in the upper chamber and incubated for 16 hr at 37° C. in the CO2 incubator. After incubation, cells in the upper chamber were removed and cells on the bottom side of the filter were fixed in 4% paraformaldehyde (PFA) and stained with 0.1% Crystal Violet before imaging. Cells from at least five random fields were counted.

[4] = tested on: human SKBr3 mammary carcinoma cells; experiment: Breast cancer xenograft treated with systemic peptide; format: in vivo; settings: SKBr3 xenografts in nude mice; 1.09 mg/kg/day by Alzet pump for 3 weeks
Method: FIG. 9. Treatment of breast cancer xenograft with systemic S1ED^210-240. 4×10^6 human SKBr3 mammary carcinoma cells were injected in a 1:1 mix with matrigel into the posterior flanks of immunodeficient nude (nu/nu) mice and allowed to establish for one week as palpable tumors. Alzet pumps were then implanted subcutaneously on the anterior dorsal backs of the animals, systemically delivering either phosphate buffered-saline alone (PBS) or S1ED 210-240 peptide in PBS for 3 weeks of treatment. Peptide was delivered at 1.09 mg/kg/day, a concentration estimated to achieve concentrations sufficient to block the VLA-4/VEGFR2 mechanism. Tumor sizes were measured with calipers and converted to tumor volumes using the equation […]. The data are shown as the mean of 12 tumors+/−S.E.M.

VLA-4 and VEGFR2 = target: T2, VLA-4 and VEGFR2 (Homo sapiens, UniProt P05556+P13612+P35968); experiment: Immunostaining for co-localization of GST-S1ED with VLA-4 or VEGFR2; format: cell-based; settings: HPSE^low cells on FN, 4 μM GST-S1ED, 2.5 hrs
T2 construct: the α4-integrin (VLA-4), which is expressed on myeloma cells; endogenous in cells; host or cells: CAG human myeloma cells (HPSE^low / HPSE^high) plated on fibronectin
T2 sequence (P35968 20-1356): as the sequence (P35968 20-1356) above
T2 sequence (P13612 34-1032): as the sequence (P13612 34-1032) above
T2 sequence (P05556 21-798): as the sequence (P05556 21-798) above
Method: (§2) FIGS. 5A-C. Recombinant Sdc1 ectodomain (GST-S1ED) causes capture of VEGFR2 by VLA-4. (FIG. 5A) HPSE^high cells were plated on FN for 2.5 hrs and double stained for VLA-4 and VEGFR2. (FIG. 5B) HPSE^low cells were plated on FN in the presence of 4 μM GST-S1ED. After 2.5 hrs, cells were double-stained for GST to detect the GST-S1ED and VLA-4 or VEGFR2. (FIG. 5C) HPSE^low cells were plated on FN-pre-coated dishes for 2.5 hr in the absence or presence of GST-S1ED and whole cell lysates were prepared for immunoprecipitation with anti-VEGFR2 and VLA-4 antibodies. The associated VLA-4 was detected by immunoblotting with a VLA-4 antibody.
Fixed cells on FN-coated slides were quenched with 0.1 M glycine, permeabilized with CMF-PBS containing 0.1% Triton X-100 for 3 min at room temperature (RT) and blocked with 5% BSA in CMF-PBS. […]

VEGFR2 and VLA-4 [5] = target: T1, VEGFR2 and VLA-4; experiment: Immunoprecipitation of VEGFR2 and detection of associated VLA-4; format: cell-based; settings: HPSE^low cells on FN, 2.5 hr, in the presence of GST-S1ED
Method: as §2
HPSE^low cells were plated on FN in the presence of 4 μg/ml GST or GST-S1ED for 2.5 hr. The cells were washed with CMF-PBS, then lysed for 20 min on ice in lysis buffer (0.5% Triton X-100 in 50 mM Hepes, 50 mM NaCl and 10 mM EDTA (pH 7.4) containing a 1:1000 dilution of protease inhibitor mixture set III (Calbiochem). Cell lysates were precleared at 13000 rpm for 20 min at 4° C. using 50 μg/ml isotype-matched nonspecific IgG and 30 μl of protein G agarose (GE Healthcare), then incubated at 4° C. overnight with either 10 μg/ml anti-α4-integrin (P1H4) or VEGFR2 (mAb 55B11) or nonspecific mouse IgG. Immunoprecipitated α4-integrin or VEGFR2 were dissolved in SDS sample buffer), electrophoresed and analyzed on western blots as described previously. […]

VLA-4 = target: T3, VLA-4 (Homo sapiens, UniProt P05556+P13612); experiment: GST pull down assay: capture of VLA-4 by GST-S1ED; format: binding
T3 construct: the α4-integrin (VLA-4), which is expressed on myeloma cells; endogenous in cells; host or cells: CAG human myeloma cells (HPSE^low), whole-cell lysate
T3 sequence (P13612 34-1032): as the sequence (P13612 34-1032) above
T3 sequence (P05556 21-798): as the sequence (P05556 21-798) above
Method: as §1
(§3) CAG cells were washed with CMF-PBS and then lysed for 20 min on ice in lysis buffer. Cell debris was removed by centrifugation at 13000 rpm for 20 min at 4° C. Whole cell lysates were then incubated at 4° C. overnight with either 3 μM GST or 3 μM GST-S1ED in the absence or presence of 1 μM, 3 μM, and 10 μM S1ED^210-240 peptide. GST or GST-S1ED was captured by addition of glutathione Sepharose and the beads were washed with ice-cold lysis buffer and CMF-PBS, prior to addition of SDS-PAGE sample buffer and analyszed by electrophoresis and western blotting as described previously.

VEGFR2 = target: T4, VEGFR2 (Homo sapiens, UniProt P35968); experiment: GST pull down assay: capture of VEGFR2 by GST-S1ED; format: binding
T4 construct: endogenous in cells; host or cells: CAG human myeloma cells (HPSE^low = empty vector; HPSE^high = human HPSE cDNA)
T4 sequence (P35968 20-1356): as the sequence (P35968 20-1356) above
Method: as §1, §3

Row | concentration at which the peptide inhibits the mechanism (VEGFR2 and VLA-4 [1]) [µM] | capture of VLA-4 by GST-S1ED (VLA-4; CAG myeloma cell lysates) | capture of VEGFR2 by GST-S1ED (VEGFR2; CAG myeloma cell lysates) | Substance | induction of HPSE^low cell spreading by S1ED peptides (CAG myeloma cells [2]; on VCAM-1, 0.3 μM peptide) | FN-induced migration of HPSE^high cells (CAG myeloma cells [3]; 30 μM peptide) | migration of HPSE^low cells (CAG myeloma cells [3]; 30 μM peptide) | migration of HPSE^low cells (CAG myeloma cells [3]; low concentrations, 0.3-3 μM peptide) | size of the tumors [4] | rescue of HPSE^high polarized phenotype blocked by MMP9 blocking antibody (CAG myeloma cells [2]; on FN, GST-S1ED added) | induction of HPSE^low cell spreading by GST-S1ED constructs (CAG myeloma cells [2]; on VCAM-1, 4 μM GST-S1ED constructs) | co-localization with VEGFR2 or VLA-4 (VLA-4 and VEGFR2) | co-immunoprecipitation of VLA-4 with VEGFR2 (VEGFR2 and VLA-4 [5]) | capture of VLA-4 by GST-S1ED (VLA-4; HMEC-1 cell lysate) | capture of VEGFR2 by GST-S1ED (VEGFR2; HMEC-1 cell lysate)
1 | 30 |  |  | S1ED^210-240: peptide corresponding to amino acids 210-240 of syndecan-1 ectodomain (SEQ ID NO: 3) (DFTFETSGENTAVVAVEPDRRNQSPVDQGAT) | sufficient to induce HPSE^low cell spreading on VCAM-1 | decreased | failed to induce | induced migration of HPSE^low cells at low concentrations | effectively reduced the size of the tumors |  |  |  |  |  | 
2 |  | captures both VLA-4 and VEGFR2 | captures both VLA-4 and VEGFR2 | GST-S1ED: recombinant GST-tagged Sdc1 ectodomain expressed in bacteria and devoid of HS |  |  |  |  |  | polarized phenotype is rescued | induced cell spreading | co-localized with VEGFR2 or VLA-4 at the protrusive lamellipodium | VLA-4 is co-immunoprecipitated with VEGFR2 | captures VLA-4 and VEGFR2 from HMEC-1 cells lysates | captures VLA-4 and VEGFR2 from HMEC-1 cells lysates
